According to IntAct's records for PubMed 18441008:

B1: Steroid hormone receptor ERR1 (Homo sapiens), P11474 (parent)
chain: MSSQVVGIEPLYIKAEPASPDSPKGSSETETEPPVALAPGPAPTRCLPGHKEEEDGEGAGPGEQGGGKLVLSSLPKRLCLVCGDVASGYHYGVASCEACKAFFKRTIQGSIEYSCPASNECEITKRRRKACQACRFTKCLRVGMLKEGVRLDRVRGGRQKYKRRPEVDPLPFPGPFPAGPLAVAGGPRKTAAPVNALVSHLLVVEPEKLYAMPDPAGPDGHLPAVATLCDLFDREIVVTISWAKSIPGFSSLSLSDQMSVLQSVWMEVLVLGVAQRSLPLQDELAFAEDLVLDEEGARAAGLGELGAALLQLVRRLQALRLEREEYVLLKALALANSDSVHIEDAEAVEQLREALHEALLEYEAGRAGPGGGAERRRAGRLLLTLPLLRQTAGKVLAHFYGVKLEGKVPMHKLFLEMLEAMMD
partner: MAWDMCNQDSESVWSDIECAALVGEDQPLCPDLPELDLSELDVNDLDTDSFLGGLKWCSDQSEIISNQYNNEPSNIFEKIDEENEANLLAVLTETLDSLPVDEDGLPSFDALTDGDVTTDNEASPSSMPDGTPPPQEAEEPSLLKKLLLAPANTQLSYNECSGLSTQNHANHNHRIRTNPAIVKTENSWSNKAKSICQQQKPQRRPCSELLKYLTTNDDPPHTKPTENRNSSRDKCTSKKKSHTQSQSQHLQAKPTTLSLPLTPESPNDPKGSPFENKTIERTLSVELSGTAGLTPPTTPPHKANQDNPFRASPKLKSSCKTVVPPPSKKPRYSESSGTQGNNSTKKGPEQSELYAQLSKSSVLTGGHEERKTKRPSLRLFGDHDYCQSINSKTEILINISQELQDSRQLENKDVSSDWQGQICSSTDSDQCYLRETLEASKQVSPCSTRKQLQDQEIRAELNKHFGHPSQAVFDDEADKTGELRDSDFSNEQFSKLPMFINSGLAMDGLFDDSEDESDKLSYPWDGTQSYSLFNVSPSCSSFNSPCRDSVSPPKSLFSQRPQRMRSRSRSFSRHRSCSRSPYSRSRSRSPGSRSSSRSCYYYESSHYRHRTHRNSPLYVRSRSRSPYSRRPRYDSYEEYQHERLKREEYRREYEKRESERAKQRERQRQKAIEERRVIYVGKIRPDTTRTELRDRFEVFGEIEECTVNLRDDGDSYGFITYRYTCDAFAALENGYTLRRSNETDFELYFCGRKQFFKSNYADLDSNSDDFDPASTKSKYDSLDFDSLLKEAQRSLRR
B2: Peroxisome proliferator-activated receptor gamma coactivator 1-alpha (Homo sapiens), Q9UBK2 (parent)
chain: B1 partner
partner: B1 chain
B3: Estrogen receptor (Homo sapiens), P03372 (parent)
chain: MTMTLHTKASGMALLHQIQGNELEPLNRPQLKIPLERPLGEVYLDSSKPAVYNYPEGAAYEFNAAAAANAQVYGQTGLPYGPGSEAAAFGSNGLGGFPPLNSVSPSPLMLLHPPPQLSPFLQPHGQQVPYYLENEPSGYTVREAGPPAFYRPNSDNRRQGGRERLASTNDKGSMAMESAKETRYCAVCNDYASGYHYGVWSCEGCKAFFKRSIQGHNDYMCPATNQCTIDKNRRKSCQACRLRKCYEVGMMKGGIRKDRRGGRMLKHKRQRDDGEGRGEVGSAGDMRAANLWPSPLMIKRSKKNSLALSLTADQMVSALLDAEPPILYSEYDPTRPFSEASMMGLLTNLADRELVHMINWAKRVPGFVDLTLHDQVHLLECAWLEILMIGLVWRSMEHPGKLLFAPNLLLDRNQGKCVEGMVEIFDMLLATSSRFRMMNLQGEEFVCLKSIILLNSGVYTFLSSTLKSLEEKDHIHRVLDKITDTLIHLMAKAGLTLQQQHQRLAQLLLILSHIRHMSNKGMEHLYSMKCKNVVPLYDLLLEMLDAHRLHAPTSRGGASVEETDQSHLATAGSTSSHSLQKYYITGEAEGFPATV
partner: B1 partner

Variants of: B1
Conditions: with prgc1_human PPARGC1A

| Variant | effect of a mutation on the interaction |
| --- | --- |
| D423A | decreasing interaction strength |
| H341A | decreasing interaction strength |
| M258V;Q262E | disrupting interaction strength |

Variants of: B1
Conditions: with prgc1_human PPARGC1A
Remark: another data set of the same source

| Variant | effect of a mutation on the interaction |
| --- | --- |
| D423A | with no effect |

Variants of: B1
Conditions: with prgc1_human PPARGC1A
Remark: another data set of the same source

| Variant | effect of a mutation on the interaction |
| --- | --- |
| R315A | disrupting interaction strength |
| S259H | decreasing interaction strength |
| D338A | disrupting interaction strength |

Variants of: B1
Conditions: with prgc1_human PPARGC1A
Remark: another data set of the same source

| Variant | effect of a mutation on the interaction |
| --- | --- |
| E343A | decreasing interaction strength |

Variants of: B1
Conditions: with prgc1_human PPARGC1A
Remark: another data set of the same source

| Variant | effect of a mutation on the interaction |
| --- | --- |
| E343A | with no effect |

Variants of: B2
Conditions: with err1_human ESRRA

| Variant | effect of a mutation on the interaction |
| --- | --- |
| L210A | decreasing interaction strength |
| L144A | decreasing interaction strength |
| L144A;L210A | disrupting interaction strength |

Variants of: B2
Conditions: with err1_human ESRRA
Remark: another data set of the same source

| Variant | effect of a mutation on the interaction |
| --- | --- |
| L210A | disrupting interaction strength |
| L211A | decreasing interaction strength |
| Y213A | disrupting interaction strength |
| C207E | disrupting interaction strength |
| C207S | disrupting interaction strength |

Variants of: B2
Conditions: with err1_human ESRRA
Remark: another data set of the same source

| Variant | effect of a mutation on the interaction |
| --- | --- |
| P202A;Q203A | with no effect |
| R204A;R205A | disrupting interaction strength |

Variants of: B2
Conditions: with err1_human ESRRA
Remark: another data set of the same source

| Variant | effect of a mutation on the interaction |
| --- | --- |
| K212R | decreasing interaction strength |

Variants of: B2
Conditions: with err1_human ESRRA
Remark: another data set of the same source

| Variant | effect of a mutation on the interaction |
| --- | --- |
| L144A | disrupting interaction strength |

Variants of: B3
Conditions: with prgc1_human PPARGC1A

| Variant | effect of a mutation on the interaction |
| --- | --- |
| V376M;E380Q | increasing interaction strength |
